According to US20070093443:

Tests used:
[1] = target: T1, Complement C4 (human)
T1 chain 1: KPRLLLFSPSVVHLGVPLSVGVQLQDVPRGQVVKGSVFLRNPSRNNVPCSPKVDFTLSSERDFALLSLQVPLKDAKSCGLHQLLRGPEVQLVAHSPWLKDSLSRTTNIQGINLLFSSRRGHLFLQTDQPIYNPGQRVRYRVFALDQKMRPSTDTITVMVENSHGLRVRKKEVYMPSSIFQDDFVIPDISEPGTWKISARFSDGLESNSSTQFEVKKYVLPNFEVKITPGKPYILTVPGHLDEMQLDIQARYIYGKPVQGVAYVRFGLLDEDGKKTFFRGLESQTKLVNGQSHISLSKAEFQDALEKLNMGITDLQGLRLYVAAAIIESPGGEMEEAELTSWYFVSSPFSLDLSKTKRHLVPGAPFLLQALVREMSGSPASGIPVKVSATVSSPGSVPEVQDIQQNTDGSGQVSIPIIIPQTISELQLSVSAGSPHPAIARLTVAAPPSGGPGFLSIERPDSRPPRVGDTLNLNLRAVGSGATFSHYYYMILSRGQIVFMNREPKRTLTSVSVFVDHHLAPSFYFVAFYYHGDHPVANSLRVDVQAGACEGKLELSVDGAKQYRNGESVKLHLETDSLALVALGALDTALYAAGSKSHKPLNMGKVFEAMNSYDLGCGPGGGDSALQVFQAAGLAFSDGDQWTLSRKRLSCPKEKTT
T1 chain 2: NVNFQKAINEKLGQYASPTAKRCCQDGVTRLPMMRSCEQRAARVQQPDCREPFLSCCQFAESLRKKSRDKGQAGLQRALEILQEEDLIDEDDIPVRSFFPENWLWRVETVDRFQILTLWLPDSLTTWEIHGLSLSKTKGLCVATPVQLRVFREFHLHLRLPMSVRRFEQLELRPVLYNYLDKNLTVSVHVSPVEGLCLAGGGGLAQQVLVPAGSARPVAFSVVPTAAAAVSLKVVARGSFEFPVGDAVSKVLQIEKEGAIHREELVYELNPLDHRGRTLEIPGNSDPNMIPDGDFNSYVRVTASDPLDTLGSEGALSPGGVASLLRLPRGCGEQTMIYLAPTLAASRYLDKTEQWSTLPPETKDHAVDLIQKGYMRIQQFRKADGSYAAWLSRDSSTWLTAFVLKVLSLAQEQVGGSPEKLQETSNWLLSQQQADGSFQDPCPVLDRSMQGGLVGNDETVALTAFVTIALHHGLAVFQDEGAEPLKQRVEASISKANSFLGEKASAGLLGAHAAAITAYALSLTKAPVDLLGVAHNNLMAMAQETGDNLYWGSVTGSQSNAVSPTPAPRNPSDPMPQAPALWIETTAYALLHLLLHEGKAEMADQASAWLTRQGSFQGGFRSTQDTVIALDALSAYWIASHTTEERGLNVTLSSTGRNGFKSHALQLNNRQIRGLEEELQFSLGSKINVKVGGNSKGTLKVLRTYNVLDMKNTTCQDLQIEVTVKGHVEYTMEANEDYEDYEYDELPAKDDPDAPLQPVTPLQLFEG
T1 chain 3: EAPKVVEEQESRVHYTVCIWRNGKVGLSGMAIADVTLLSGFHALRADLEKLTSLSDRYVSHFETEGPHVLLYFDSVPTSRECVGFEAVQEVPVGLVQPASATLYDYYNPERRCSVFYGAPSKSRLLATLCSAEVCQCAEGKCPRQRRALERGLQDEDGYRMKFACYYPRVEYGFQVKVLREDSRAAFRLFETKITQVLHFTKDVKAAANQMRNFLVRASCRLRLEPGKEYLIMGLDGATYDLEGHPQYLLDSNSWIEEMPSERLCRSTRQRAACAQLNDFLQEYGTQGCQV

[2] = target: Complement component C8 (human)
[3] = target: Complement C1q (human)
[4] = target: Complement component C7 (human)
[5] = target: T2, Complement C2 (human)
T2 chain: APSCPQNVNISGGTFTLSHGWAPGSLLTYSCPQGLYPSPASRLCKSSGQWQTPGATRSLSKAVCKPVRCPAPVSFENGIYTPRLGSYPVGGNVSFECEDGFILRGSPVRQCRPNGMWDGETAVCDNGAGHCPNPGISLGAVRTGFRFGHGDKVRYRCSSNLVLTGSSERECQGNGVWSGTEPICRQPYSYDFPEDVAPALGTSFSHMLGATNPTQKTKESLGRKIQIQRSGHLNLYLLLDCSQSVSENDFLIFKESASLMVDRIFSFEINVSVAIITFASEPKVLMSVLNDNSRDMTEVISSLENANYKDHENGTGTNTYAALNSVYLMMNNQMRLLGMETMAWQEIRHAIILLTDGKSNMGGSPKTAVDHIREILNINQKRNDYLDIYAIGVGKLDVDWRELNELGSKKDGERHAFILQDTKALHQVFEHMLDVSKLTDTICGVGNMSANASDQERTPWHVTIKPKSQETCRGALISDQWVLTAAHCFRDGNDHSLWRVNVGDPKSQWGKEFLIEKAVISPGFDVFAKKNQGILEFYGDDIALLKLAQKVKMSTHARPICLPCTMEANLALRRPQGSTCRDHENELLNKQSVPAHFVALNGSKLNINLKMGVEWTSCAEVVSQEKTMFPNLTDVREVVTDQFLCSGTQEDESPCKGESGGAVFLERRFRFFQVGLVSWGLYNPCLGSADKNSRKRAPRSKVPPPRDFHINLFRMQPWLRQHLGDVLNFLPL

Chain of Complement component C7 (human) (chain, as listed by the source): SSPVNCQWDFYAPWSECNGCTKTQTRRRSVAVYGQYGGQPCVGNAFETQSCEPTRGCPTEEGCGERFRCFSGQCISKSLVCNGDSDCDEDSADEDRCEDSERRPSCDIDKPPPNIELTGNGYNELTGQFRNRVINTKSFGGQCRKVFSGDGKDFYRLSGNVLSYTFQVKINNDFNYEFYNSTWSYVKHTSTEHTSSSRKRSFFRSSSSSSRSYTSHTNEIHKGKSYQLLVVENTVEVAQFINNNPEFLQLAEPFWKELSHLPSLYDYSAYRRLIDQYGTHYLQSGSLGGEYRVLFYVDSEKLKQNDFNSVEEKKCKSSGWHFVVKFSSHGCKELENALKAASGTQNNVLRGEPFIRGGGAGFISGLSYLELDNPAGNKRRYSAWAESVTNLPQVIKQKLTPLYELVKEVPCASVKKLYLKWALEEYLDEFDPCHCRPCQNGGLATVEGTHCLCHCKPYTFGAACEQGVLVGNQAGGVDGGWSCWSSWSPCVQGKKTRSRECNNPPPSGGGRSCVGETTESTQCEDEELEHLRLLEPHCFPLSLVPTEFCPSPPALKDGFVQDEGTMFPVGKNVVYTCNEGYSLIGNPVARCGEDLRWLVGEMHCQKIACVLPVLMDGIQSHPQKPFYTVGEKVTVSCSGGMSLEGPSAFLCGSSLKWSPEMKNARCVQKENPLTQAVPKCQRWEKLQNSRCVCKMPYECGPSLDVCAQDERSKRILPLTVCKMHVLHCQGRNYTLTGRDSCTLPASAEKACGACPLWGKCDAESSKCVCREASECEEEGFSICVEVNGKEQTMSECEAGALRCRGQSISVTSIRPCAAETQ
Chain of Complement component C8 (human) (chain, as listed by the source, chain 1 of 3): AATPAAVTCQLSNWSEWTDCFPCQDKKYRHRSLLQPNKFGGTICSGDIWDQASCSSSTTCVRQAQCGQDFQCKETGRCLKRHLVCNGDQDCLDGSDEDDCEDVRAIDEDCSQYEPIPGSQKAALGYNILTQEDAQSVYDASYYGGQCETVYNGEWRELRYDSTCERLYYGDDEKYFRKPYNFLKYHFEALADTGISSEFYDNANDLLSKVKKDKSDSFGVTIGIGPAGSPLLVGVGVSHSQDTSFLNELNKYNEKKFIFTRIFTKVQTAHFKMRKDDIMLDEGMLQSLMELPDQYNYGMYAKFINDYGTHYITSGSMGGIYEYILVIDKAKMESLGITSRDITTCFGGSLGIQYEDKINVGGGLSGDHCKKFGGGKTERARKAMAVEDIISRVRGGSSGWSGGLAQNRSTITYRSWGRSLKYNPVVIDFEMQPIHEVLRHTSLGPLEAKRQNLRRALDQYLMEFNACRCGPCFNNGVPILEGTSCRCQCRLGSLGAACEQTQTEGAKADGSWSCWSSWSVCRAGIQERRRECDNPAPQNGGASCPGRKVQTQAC
Chain of Complement component C8 (human) (chain, as listed by the source, chain 2 of 3): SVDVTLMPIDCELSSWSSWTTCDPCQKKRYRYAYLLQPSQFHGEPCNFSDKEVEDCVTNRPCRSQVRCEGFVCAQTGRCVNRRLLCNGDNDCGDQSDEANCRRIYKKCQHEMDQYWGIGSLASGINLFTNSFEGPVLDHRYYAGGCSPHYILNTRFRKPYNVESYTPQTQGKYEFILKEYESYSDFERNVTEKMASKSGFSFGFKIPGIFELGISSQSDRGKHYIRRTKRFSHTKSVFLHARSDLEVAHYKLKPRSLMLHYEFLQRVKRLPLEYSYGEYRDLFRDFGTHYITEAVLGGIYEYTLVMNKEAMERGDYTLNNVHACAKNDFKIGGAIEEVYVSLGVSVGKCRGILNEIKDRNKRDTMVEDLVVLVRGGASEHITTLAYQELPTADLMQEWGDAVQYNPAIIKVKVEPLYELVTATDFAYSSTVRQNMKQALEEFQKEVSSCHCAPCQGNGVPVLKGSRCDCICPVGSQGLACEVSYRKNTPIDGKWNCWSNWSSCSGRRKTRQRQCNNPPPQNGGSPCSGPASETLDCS
Chain of Complement component C8 (human) (chain, as listed by the source, chain 3 of 3): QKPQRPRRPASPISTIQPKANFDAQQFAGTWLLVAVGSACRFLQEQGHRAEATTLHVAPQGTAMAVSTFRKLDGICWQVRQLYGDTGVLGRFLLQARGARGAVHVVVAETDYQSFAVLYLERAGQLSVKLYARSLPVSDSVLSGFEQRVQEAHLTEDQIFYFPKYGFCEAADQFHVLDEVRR

B1: modified MT-SP1 CB252 (Y146E/K224N) protease domain (protein)
chain: VVGGTDADEGEWPWQVSLHALGQGHICGASLISPNWLVSAAHCYIDDRGFRYSDPTQWTAFLGLHDQSQRSAPGVQERRLKRIISHPFFNDFTFDYDIALLELEKPAEYSSMVRPICLPDASHVFPAGKAIWVTGWGHTQEGGTGALILQKGEIRVINQTTCENLLPQQITPRMMCVGFLSGGVDSCQGDSGGPLSSVEADGRIFQAGVVSWGDGCAQRNNPGVYTRLPLFRDWIKENTGV
[1]
  hemolysis (OD415) by protease-preincubated purified complement protein added back to the corresponding depleted sera: showed no decreased hemolysis as compared to normal sera or the no protease control
[2]
  hemolysis (OD415) by protease-preincubated purified complement protein added back to the corresponding depleted sera: showed no decreased hemolysis as compared to normal sera or the no protease control
[3]
  hemolysis (OD415) by protease-preincubated purified complement protein added back to the corresponding depleted sera: showed no decreased hemolysis as compared to normal sera or the no protease control
[4]
  hemolysis (OD415) by protease-preincubated purified complement protein added back to the corresponding depleted sera: showed no decreased hemolysis as compared to normal sera or the no protease control
[5]
  cleavage in 90% human plasma by Western blot: cleaved C2 in human plasma in a dose-dependent manner
  cleavage of purified C2 by 100 nM protease, SDS-PAGE and Coomassie: C2 was almost completely degraded to yield cleavage products of about 70 kD and 23 kD corresponding to C2a and C2b, respectively
  fraction C5b-9 generated, Total Complement System Screen (classical and MBL pathways), 1 uM protease in human plasma: the fraction C5b-9 generated upon complement activation induced by the classical and MBL pathways was almost completely inhibited
  hemolysis (OD415) by protease-preincubated purified complement protein added back to the corresponding depleted sera: resulted in an inhibition of hemolysis as assessed by a reduced OD415 absorbance to levels comparable to the depleted sera control

B2: modified MT-SP1 CB377 (Y146E/Q175D/K224N) protease domain (protein)
chain: VVGGTDADEGEWPWQVSLHALGQGHICGASLISPNWLVSAAHCYIDDRGFRYSDPTQWTAFLGLHDQSQRSAPGVQERRLKRIISHPFFNDFTFDYDIALLELEKPAEYSSMVRPICLPDASHVFPAGKAIWVTGWGHTQEGGTGALILQKGEIRVINQTTCENLLPQDITPRMMCVGFLSGGVDSCQGDSGGPLSSVEADGRIFQAGVVSWGDGCAQRNNPGVYTRLPLFRDWIKENTGV
[1]
  hemolysis (OD415) by protease-preincubated purified complement protein added back to the corresponding depleted sera: showed no decreased hemolysis as compared to normal sera or the no protease control
[2]
  hemolysis (OD415) by protease-preincubated purified complement protein added back to the corresponding depleted sera: showed no decreased hemolysis as compared to normal sera or the no protease control
[3]
  hemolysis (OD415) by protease-preincubated purified complement protein added back to the corresponding depleted sera: showed no decreased hemolysis as compared to normal sera or the no protease control
[4]
  hemolysis (OD415) by protease-preincubated purified complement protein added back to the corresponding depleted sera: showed no decreased hemolysis as compared to normal sera or the no protease control
[5]
  cleavage in 90% human plasma by Western blot: cleaved C2 in human plasma in a dose-dependent manner
  cleavage of purified C2 by 100 nM protease, SDS-PAGE and Coomassie: C2 was almost completely degraded to yield cleavage products of about 70 kD and 23 kD corresponding to C2a and C2b, respectively
  fraction C5b-9 generated, Total Complement System Screen (classical and MBL pathways), 1 uM protease in human plasma: the fraction C5b-9 generated upon complement activation induced by the classical and MBL pathways was almost completely inhibited
  hemolysis (OD415) by protease-preincubated purified complement protein added back to the corresponding depleted sera: resulted in an inhibition of hemolysis as assessed by a reduced OD415 absorbance to levels comparable to the depleted sera control
